# Assay results reported in the nanobody polyreactivity screen of Harvey et al. (2022).
# Test: yeast display, Sf9 membrane polyspecificity reagent, FACS + sequencing; frameworks hold sequencing errors
# How it was run: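 Synthetic nanobody libraries on Saccharomyces cerevisiae BJ5465 were galactose-induced for 36–48 hours, stained 1 hour at 4 °C with 10% biotinylated, detergent-solubilized Sf9 membrane reagent and enriched on streptavidin microbeads. FACS then separated cells into low and high (top ~1%) gates by anti-HA (expression) and streptavidin (reagent binding) fluorescence. Genes were colony-PCR amplified, MiSeq 2 × 250 sequenced and CDR-length filtered. A clone's polyreactivity label is that of its gate of origin.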
row,Sequence,polyreactivity (PSR sort gate)
1,QVQLVESGGGLVQAGGSLRLSCAASGRIFSRNAMGWYRQAPGKEWELVARITVTVGSTYYADSVKGRFTISRDNAKNTVYLQMNSLKPEDTAVYYCAADAGYRYDCPYNYYYWGQGTQVTVSS,low polyreactivity
2,QVQLVESGGGLVQAGGSLRLSCAASGRIFSRYAKGWYRQAPGKERELVAAINKSGGSTYYADSVKGRFTISRDNAKNTVYLQMNSLKPEDTAVYYCNAVYYWYKGDYWGQGTQVTVSS,high polyreactivity
3,QVQLVESGGGLVQAGGSLRLSCAASGRIFSRYAMGWYLQAPGKERELVAAISWSGGSTYYADSVKGRFTISRDNAKNTVYLQMNSLKPEDTAVYYCAAKRQYTEYNYWGQGTQVTVSS,high polyreactivity
4,QVQLVESGGGLVQAGGSLRLSCAASGRIFSRYAMGWYRQAPGKERELVAAISKSGGRTYYADSVKGRFTISRDNAKNTVYLQKNSLKPEDTAVYYCATVIFRSSGYYYWGQGTQVTVSS,high polyreactivity
5,QVQLVESGGGLVQAGGSLRLSCAASGRIFSRYAMGWYRQAPGKERELVAAITRRGGSTYYADSVKGRFTISRDNAKNTVYLQMNSLKPEDTAVYYCAADGQWPWWLLRYDYWGQGTQVTVSS,high polyreactivity
6,QVQLVESGGGLVQAGGSLRLSCAASGRIFSRYTMGGYRQAPGKERELVAANSYRGGSTYYADSVKGRFTISRDNAKNTVYLQMNSLKPEDTAVYYCAARVQAIYRYDYWGQGTQVTVSS,high polyreactivity
7,QVQLVESGGGLVQAGGSLRLSCAASGRIFSRYTMGWYRQAPGKERELVATIRISGGNTYYADSVKGRFTISRDNAKNTVYLQMNSLKPDDTAVYYCAARYGWVQNTYTMYFWGQGTQVTVSS,high polyreactivity
8,QVQLVESGGGLVQAGGSLRLSCAASGRIFSSYAMGWYRQAPWKERELVAAISGSGGRTYYADSVKGRFTISRDNAKNTVYLQMNSLKPEDTAVYYCNARRRSPYSTGVAYDYWGQGTQVTVSS,high polyreactivity
9,QVQLVESGGGLVQAGGSLRLSCAASGRIFSSYTMGWYRQAPGKERELVAAISWRGGSTYYADSVKGRFTISRDNAKNTVYLQMNSLKPEDTAVYYCAADSRSHPGDYWGQGTQVTVSS,low polyreactivity
10,QVQLVESGGGLVQAGGSLRLSCAASGRIFSTYAMGWYRQAPGKERELVAAINKIGGSTYYADSVKGRFTISRDNAKNTVYLQMNSLIPEDTAVYYCAADAPYYPVRRYYYWGQGTQVTVSS,low polyreactivity
11,QVQLVESGGGLVQAGGSLRLSCAASGRIFSTYTMGWYRQAPGKEMELVAAIRANGGSTYYADSVKGRFTISRDNAKNTVYLQMNSLKPEDTAVYYCAALYRRYPYHYDSWGQGTQVTVSS,high polyreactivity
12,QVQLVESGGGLVQAGGSLRLSCAASGRIFSVNAMGWYRQATGKERELVASITMSGGSTYYADSVKGRFTISRDNAKNTVYIQMNSLKPEDTAVYYCAKGWSRYNDRERDDEYWGQGTQVTVSS,low polyreactivity
13,QVQLVESGGGLVQAGGSLRLSCAASGRIFSVNVMVWYRQAPGKERELVAAITWSVGSTYYADSVKARFTISRDNAKYTVSLQMYSLKPEDTAVYYSAARVPPVYGRVGGYHYWGQGTQVTVSS,low polyreactivity
14,QVQLVESGGGLVQAGGSLRLSCAASGRIFSVYAMGWSRQAPGKERELVATIRWGGGSTYYADSVKGRFTISRDNAKNTVYLQMNSLKPEDTAVYYCAAGWRGGRYRYFAYDYWGQGTQVTVSS,high polyreactivity
15,QVQLVESGGGLVQAGGSLRLSCAASGRIFSVYAMGWYRQAPGKERELVAGITSSGGSTYYADSVKGRFTISRDNAKNTVYLQMNSLKPEDTAVYYCNAYSQYWLGNNYWGQGTQVTVSS,high polyreactivity
16,QVQLVESGGGLVQAGGSLRLSCAASGRIFSVYSMGWYRQAPGKERELVAAIRSGDRTNYADSVKGRFTISRDNAKNTVYLQMISLKPEVTAVYYCAAVRYPNWYDYWGHGTQVTVSS,high polyreactivity
17,QVQLVESGGGLVQAGGSLRLSCAASGRIFSWYAMGWYRQAPGKERELVAAISWNGGSTYYADSVKGRFTISRDNAKNTVYLQMNSLKPEDTAVYYCAATYRHYGYDSWGQGTQVTVSS,high polyreactivity
18,QVQLVESGGGLVQAGGSLRLSCAASGRIFSWYAMGWYRQAPGKEREMVARITTRGGNTYYADSVKGRFTISRDNAKNTVFLQMNSLKPEDTAVYYCAARHPYPIYDYWGQGTQVTVSS,low polyreactivity
19,QVQLVESGGGLVQAGGSLRLSCAASGRIFSWYDMGWDRQAPGKERELVAAISSGGSTIYADSVKGRFTISRDNAKQTVYLQMNSLKPEDTAVSYCNKSPSWWRYKTGLDYWGQGTQVTVSS,high polyreactivity
20,QVQLVESGGGLVQAGGSLRLSCAASGRIFSYAMGWYRQAPGKERELVAGISRSGGSTYYADSVKGRFTISRDNAKNTVYLQMNSLKPEDTAVYYCAAVKIRTVYKYNYWGQGTQVTVSS,high polyreactivity
21,QVQLVESGGGLVQAGGSLRLSCAASGRIFSYNAMGWYRQAPGKERELVAAIRVRGGSTYYADSVKGRFTLSRDNAKNTVYLQMNSLKPEDTAVYYCNASDYKISATNAVVRYYYWGQGTQVTVSS,high polyreactivity

row,Sequence,polyreactivity (PSR sort gate)
1,QVQLVESGGGLVQAGGSLRLSCAASGRIFSYNAMGWYRQAPGKERELVAAISSGGSTYYADSVKGRFTISRDNAKNTVYLQMNSLKPEDTAVYYCAADRRYYSDMYYWGQGTQVTVSS,low polyreactivity
2,QVQLVESGGGLVQAGGSLRLSCAASGRIFSYNAMGWYRQAPGKERELVAAISYRGGSTYYADSVKGRFTISRDNAKNTVYLQMNSLKPEDTAVYYCNAEAYYPYGYDYWGQGTQVSVSS,low polyreactivity
3,QVQLVESGGGLVQAGGSLRLSCAASGRIFSYNAMGWYRQAPGKERELVAAITGGGSTNYADSVQGRFTISRDNAKNTVYLHMTSLKPEDTAVYYCAADARGYGYYYWGQGTQVTVSS,high polyreactivity
4,QVQLVESGGGLVQAGGSLRLSCAASGRIFSYNAMGWYRQAPGQERELVAAITTGGSTYYADSVKGRFTISRDNAKNTVYLQMNSLKPEDTAVYYCNKLGYYYDRRYDYWRQGTQVTVSS,high polyreactivity
5,QVQLVESGGGLVQAGGSLRLSCAASGRIFSYNARGWYRQAPGKERELVAAISSDGSTYYADSVKGRFTISRDNAKNTVYLQMNSRKPEDTAVYYCAARQVLWFDYTTAQVGSYKVNSWGQGTQVTVSS,low polyreactivity
6,QVQLVESGGGLVQAGGSLRLSCAASGRIFSYNVMGWYRQAPGKERELVAAITSNDGSTYYADSVKGRFTISRDNAKNTVYLQMNSLKPEVTAVYYCNADYGPVSLKEPFRDDYWGQGNQVTVSS,low polyreactivity
7,QVQLVESGGGLVQAGGSLRLSCAASGRIFSYYALGWYRQAPGKERELVAAISSRGGSTYYADSVKGRFTISRDNAKNTVYLQMNSLKPEDTAVYYCNAYVYQVIGHDYWGQGTQVTVSS,high polyreactivity
8,QVQLVESGGGLVQAGGSLRLSCAASGRIFSYYAMGWYRQAPGKERELVAAISRTGGTTYYADSVKGRFTISRDNAKNTVYLQMNSLNPEDTAVYYCYAVKAPYMRYDYWGQGTQVTVSS,high polyreactivity
9,QVQLVESGGGLVQAGGSLRLSCAASGRIFSYYAMGWYRQAPGKERELVAAISTSGGNTYYADSVKGRFTISRDNAKNTVYLQMNSLLTEDTAVYYCAAAYFSSGYKYYYWGQGTQVSVSS,high polyreactivity
10,QVQLVESGGGLVQAGGSLRLSCAASGRIFSYYAMGWYRQAPGKERELVAAISYSTTSTYYADSVKGRFTISRDNAKNTVYLQMNSLKPEDTAVYYCAAEFQPGSYTPTYDYWGQGTQVTVSS,low polyreactivity
11,QVQLVESGGGLVQAGGSLRLSCAASGRIFSYYAMGWYRQAPGKERELVATISGSGGSTYYADSVKGRFTISRDNAKNTVFLQMNSLKPEDTAVYYCAATGFIFRGRVRAIPRRYNYWGQGTQVTVSS,high polyreactivity
12,QVQLVESGGGLVQAGGSLRLSCAASGRIFSYYTMGGYRQAPGTERELVAAISSGGSTNYADSVKGRFTISRDNAKNTVYLQMNSLKPEDTAVYYCAVRSGRRNYDRPAFGYWGQGTQVTVSS,high polyreactivity
13,QVQLVESGGGLVQAGGSLRLSCAASGRIFSYYTMGWYRQAPGKEREFVAAISWNDGSTYYADSVKGRFTISRDNSKNTVYLQMNSLKPEDTAVYYCAAEYHYFWWRMDYWGQGTQVTVSS,high polyreactivity
14,QVQLVESGGGLVQAGGSLRLSCAASGRIFSYYTMGWYRQAPGKERELVAAITSGDSTNYADSVKGRFTISRDNAKNTVYLQMNSLKPEDTAVYYCNARYSWWRSRVGSSHGPDGYWGQGTQVTVSS,high polyreactivity
15,QVQLVESGGGLVQAGGSLRLSCAASGRIFTANAMGWYRQAPGKERELVAAITSGTRTNYADSVKGRFTISRDNAKNTVYLQMNSLKPEDTAVFYCAKETATSKYDYWGQGTQVTVSS,low polyreactivity
16,QVQLVESGGGLVQAGGSLRLSCAASGRIFTFYAMGWYRQAPGKERELVAAITSGGSTYYADSVKGRFTISRDNAKKTVYLQMNSLKPEDTAVYYCNTYPGSRHGWYDYWGQVTQVTVSS,high polyreactivity
17,QVQLVESGGGLVQAGGSLRLSCAASGRIFTGNAMGWYRQAPGKERELVAAISSRGGRTYYADSVKGRFTISRDNAKNTVYLQMNSLKPEDTAVYYCNAVAVAASRAYSWYDYWGQGTQVTVSS,high polyreactivity
18,QVQLVESGGGLVQAGGSLRLSCAASGRIFTGYALGWYRQAPGKERELVAAISRGGSTNYADSVKGRFTISRDNAKNTVYLQMNSLKPEDTAVYYCAAGVHWDRGDYWGQGTQVTVSS,low polyreactivity
19,QVQLVESGGGLVQAGGSLRLSCAASGRIFTGYAMGWYRQAPGKERELVAAISRGGSTNYADSVKGRFTISRDNAKNSVYLQMNSLKPEDTAVYYCAAGVHWDRGDYWGQGTQVTVSS,low polyreactivity
20,QVQLVESGGGLVQAGGSLRLSCAASGRIFTGYAMGWYRQAPGKERELVATIRSRGGGTYYADSVKGRFTISRDNAKNTVYLQMNSLKPEDTAVYYCAADDYYYYFGTRYGYWGQGTQVTVSS,low polyreactivity
